{"source": "paper PMC12440816", "about": "“Cell cycle regulation has shaped replication origins in budding yeast” (Nature Structural & Molecular Biology, 2025)", "key": {"Mcm4": {"molecular_target": "T1, Mcm4 (Saccharomyces cerevisiae, UniProt P30665 1-933)", "T1 construct": "Mcm4 of S. cerevisiae; Subunit of m5, for the subunit pairs of the SH structure; source: subunit of purified MCM–Cdt1 (previously described methods)", "T1 sequence": "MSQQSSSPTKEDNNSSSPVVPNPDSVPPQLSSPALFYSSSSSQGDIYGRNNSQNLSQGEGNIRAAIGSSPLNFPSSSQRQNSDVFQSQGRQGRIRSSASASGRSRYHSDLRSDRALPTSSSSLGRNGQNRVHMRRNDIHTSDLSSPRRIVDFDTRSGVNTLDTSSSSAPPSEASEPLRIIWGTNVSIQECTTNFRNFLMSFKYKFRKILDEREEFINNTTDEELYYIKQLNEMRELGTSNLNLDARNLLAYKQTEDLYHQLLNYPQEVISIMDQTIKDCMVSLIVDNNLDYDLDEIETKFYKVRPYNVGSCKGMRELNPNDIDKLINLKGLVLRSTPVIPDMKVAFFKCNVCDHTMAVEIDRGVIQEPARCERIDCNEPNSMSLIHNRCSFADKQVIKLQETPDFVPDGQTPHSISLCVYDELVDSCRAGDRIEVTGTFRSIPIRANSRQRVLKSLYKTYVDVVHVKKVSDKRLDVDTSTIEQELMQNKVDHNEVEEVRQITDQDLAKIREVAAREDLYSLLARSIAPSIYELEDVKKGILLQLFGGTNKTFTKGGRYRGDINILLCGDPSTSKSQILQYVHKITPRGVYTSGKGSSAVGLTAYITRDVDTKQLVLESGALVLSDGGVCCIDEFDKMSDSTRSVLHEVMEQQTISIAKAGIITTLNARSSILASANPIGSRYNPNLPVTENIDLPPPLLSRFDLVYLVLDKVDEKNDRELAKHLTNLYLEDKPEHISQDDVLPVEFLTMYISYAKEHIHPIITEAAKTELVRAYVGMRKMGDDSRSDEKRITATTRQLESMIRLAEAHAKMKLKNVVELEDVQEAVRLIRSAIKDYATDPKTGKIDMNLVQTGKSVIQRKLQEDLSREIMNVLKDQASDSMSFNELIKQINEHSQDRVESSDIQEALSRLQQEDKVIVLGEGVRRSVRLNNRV", "test": "cryo-EM structure; SH and DH on nucleosome-flanked ARS1 (15 nM) loaded by Orc6-4A ORC (40 nM) pre-phosphorylated by CDK, Cdc6 (40 nM), MCM–Cdt1 (80 nM), 2.2 mM ATP, 30 °C, 30 min", "conditions": "both partners purified"}, "Mcm3": {"molecular_target": "T2, Mcm3 (Saccharomyces cerevisiae, UniProt P24279 1-971)", "T2 construct": "Mcm3 of S. cerevisiae; Subunit of m5, for the subunit pairs of the SH structure; source: subunit of purified MCM–Cdt1 (previously described methods)", "T2 sequence (P24279 whole entry)": "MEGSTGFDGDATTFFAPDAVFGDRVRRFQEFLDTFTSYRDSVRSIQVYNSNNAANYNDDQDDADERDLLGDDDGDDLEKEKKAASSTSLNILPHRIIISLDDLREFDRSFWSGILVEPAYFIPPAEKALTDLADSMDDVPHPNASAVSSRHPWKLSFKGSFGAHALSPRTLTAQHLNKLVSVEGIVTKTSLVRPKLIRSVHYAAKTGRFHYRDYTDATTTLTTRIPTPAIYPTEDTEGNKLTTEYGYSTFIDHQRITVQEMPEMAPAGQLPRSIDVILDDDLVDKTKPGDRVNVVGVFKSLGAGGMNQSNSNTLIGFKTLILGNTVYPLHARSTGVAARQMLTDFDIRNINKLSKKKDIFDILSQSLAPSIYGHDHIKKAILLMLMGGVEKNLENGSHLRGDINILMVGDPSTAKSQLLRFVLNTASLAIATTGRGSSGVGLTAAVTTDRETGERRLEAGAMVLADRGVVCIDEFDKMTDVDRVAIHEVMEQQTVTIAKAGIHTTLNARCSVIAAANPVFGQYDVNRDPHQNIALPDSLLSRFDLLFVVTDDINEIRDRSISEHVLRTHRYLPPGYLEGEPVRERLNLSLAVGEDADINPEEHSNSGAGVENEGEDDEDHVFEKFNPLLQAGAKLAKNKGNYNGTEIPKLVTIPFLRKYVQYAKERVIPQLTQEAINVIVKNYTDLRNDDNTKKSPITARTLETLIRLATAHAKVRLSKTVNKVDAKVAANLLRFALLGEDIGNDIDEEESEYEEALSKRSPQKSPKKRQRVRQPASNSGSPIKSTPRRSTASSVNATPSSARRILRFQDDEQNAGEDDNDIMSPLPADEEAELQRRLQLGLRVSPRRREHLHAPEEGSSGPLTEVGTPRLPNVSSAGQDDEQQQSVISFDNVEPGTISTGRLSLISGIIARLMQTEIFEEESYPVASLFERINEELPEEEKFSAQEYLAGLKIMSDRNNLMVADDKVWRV", "test": "cryo-EM structure; SH and DH on nucleosome-flanked ARS1 (15 nM) loaded by Orc6-4A ORC (40 nM) pre-phosphorylated by CDK, Cdc6 (40 nM), MCM–Cdt1 (80 nM), 2.2 mM ATP, 30 °C, 30 min", "conditions": "both partners purified"}}, "data": [{"binder": "Mcm7 (natural protein, Saccharomyces cerevisiae, Mcm7 of S. cerevisiae; Subunit of m5, for the subunit pairs of the SH structure; source: subunit of purified MCM–Cdt1 (previously described methods)) MSAALPSIQLPVDYNNLFNEITDFLVTFKQDTLSSDATRNENEDENLDAENIEQHLLEKGPKYMAMLQKVANRELNSVIIDLDDILQYQNEKFLQGTQADDLVSAIQQNANHFTELFCRAIDNNMPLPTKEIDYKDDVLDVILNQRRLRNERMLSDRTNEIRSENLMDTTMDPPSSMNDALREVVEDETELFPPNLTRRYFLYFKPLSQNCARRYRKKAISSKPLSVRQIKGDFLGQLITVRGIITRVSDVKPAVEVIAYTCDQCGYEVFQEVNSRTFTPLSECTSEECSQNQTKGQLFMSTRASKFSAFQECKIQELSQQVPVGHIPRSLNIHVNGTLVRSLSPGDIVDVTGIFLPAPYTGFKALKAGLLTETYLEAQFVRQHKKKFASFSLTSDVEERVMELITSGDVYNRLAKSIAPEIYGNLDVKKALLLLLVGGVDKRVGDGMKIRGDINVCLMGDPGVAKSQLLKAICKISPRGVYTTGKGSSGVGLTAAVMKDPVTDEMILEGGALVLADNGICCIDEFDKMDESDRTAIHEVMEQQTISISKAGINTTLNARTSILAAANPLYGRYNPRLSPLDNINLPAALLSRFDILFLMLDIPSRDDDEKLAEHVTYVHMHNKQPDLDFTPVEPSKMREYIAYAKTKRPVMSEAVNDYVVQAYIRLRQDSKREMDSKFSFGQATPRTLLGIIRLSQALAKLRLADMVDIDDVEEALRLVRVSKESLYQETNKSKEDESPTTKIFTIIKKMLQETGKNTLSYENIVKTVRLRGFTMLQLSNCIQEYSYLNVWHLINEGNTLKFVDDGTMDTDQEDSLVSTPKLAPQTTASANVSAQDSDIDLQDA", "values": [{"measurement": "binding result", "setting": "Mcm4", "value": "binds"}, {"measurement": "binding result", "setting": "Mcm3", "value": "binds"}]}]}
